The target of assay [1] is T1, HIS-TreAC-EI: N-terminally HIS-tagged fragment of TreA with C-terminal fusion leucine zipper (Escherichia coli O9:H4 (strain HS), UniProt A7ZZD1 97-565).
T1 sequence: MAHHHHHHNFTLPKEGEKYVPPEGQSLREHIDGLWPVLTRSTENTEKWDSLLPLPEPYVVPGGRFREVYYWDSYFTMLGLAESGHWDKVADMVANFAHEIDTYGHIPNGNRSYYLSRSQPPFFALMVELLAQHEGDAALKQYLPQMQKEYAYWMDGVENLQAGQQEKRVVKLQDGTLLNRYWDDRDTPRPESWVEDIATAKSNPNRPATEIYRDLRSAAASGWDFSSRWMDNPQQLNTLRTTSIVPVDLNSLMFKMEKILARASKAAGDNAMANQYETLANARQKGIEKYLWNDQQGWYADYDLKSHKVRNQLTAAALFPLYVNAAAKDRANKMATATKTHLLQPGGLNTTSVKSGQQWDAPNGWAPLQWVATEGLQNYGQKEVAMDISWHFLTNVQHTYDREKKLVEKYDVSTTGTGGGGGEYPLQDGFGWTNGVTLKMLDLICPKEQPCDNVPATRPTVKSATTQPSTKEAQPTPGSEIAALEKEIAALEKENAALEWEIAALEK
The experiment in a line: split trehalase complementation, non-complementary zippers Ei+Ei (FIG. 24A).

The target in assay [2] is T2, HIS-TreAC-KI: N-terminally HIS-tagged fragment of TreA with C-terminal fusion leucine zipper (Escherichia coli O9:H4 (strain HS), UniProt A7ZZD1 97-565).
T2 sequence: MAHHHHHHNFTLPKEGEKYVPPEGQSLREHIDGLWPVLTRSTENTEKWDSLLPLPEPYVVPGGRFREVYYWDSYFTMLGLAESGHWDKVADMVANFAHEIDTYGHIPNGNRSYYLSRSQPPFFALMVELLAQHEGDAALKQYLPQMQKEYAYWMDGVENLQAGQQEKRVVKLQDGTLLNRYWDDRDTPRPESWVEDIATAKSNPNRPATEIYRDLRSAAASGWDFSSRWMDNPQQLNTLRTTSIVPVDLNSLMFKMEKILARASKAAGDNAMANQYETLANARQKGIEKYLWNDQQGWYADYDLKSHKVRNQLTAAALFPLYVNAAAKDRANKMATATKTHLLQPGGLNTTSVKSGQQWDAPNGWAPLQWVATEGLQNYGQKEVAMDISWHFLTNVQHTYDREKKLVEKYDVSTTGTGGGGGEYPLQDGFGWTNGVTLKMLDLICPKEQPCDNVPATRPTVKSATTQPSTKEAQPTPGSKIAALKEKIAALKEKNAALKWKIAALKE
The assay is described as follows: cell-based or functional assay.

The target of assay [3] is HIS-TreA^N-bCalm: N-terminally HIS-tagged N-terminal fragment of TreA^N with C-terminal fusion of bovine …. The assay is described as follows: split trehalase complementation with Ca2+, glucose read-out.
In assay [4] the target is T2, HIS-TreAC-KI: N-terminally HIS-tagged …. The assay is described as follows: split trehalase complementation, non-complementary zippers Ki+Ki (FIG. 24A).
Assay [5] has as its target T3, HIS-TreAC: N-terminally HIS-tagged C-terminal fragment of TreA (Escherichia coli O9:H4 (strain HS), UniProt A7ZZD1 97-565).
T3 construct: Split E. coli trehalase fragment; also called HIS-tagged TreA^C
T3 sequence: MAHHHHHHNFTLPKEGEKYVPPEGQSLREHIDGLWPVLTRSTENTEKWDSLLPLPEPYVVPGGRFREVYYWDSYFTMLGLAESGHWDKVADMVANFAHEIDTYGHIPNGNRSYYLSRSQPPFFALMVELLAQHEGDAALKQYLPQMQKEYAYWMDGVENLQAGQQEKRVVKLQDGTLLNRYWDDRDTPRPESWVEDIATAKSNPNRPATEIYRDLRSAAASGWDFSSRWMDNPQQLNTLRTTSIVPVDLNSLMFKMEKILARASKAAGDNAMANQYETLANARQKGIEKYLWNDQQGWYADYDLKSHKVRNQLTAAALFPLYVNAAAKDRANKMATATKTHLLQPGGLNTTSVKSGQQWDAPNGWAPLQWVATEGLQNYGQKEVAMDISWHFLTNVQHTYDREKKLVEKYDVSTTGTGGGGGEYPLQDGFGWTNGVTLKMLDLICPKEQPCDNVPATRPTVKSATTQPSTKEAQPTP
The experiment in a line: split trehalase complementation, 24 h with trehalose, Benedict's reagent (FIG. 7).

Assay [6] deals with T4, TreAC-HIS: C-terminally HIS-tagged C-terminal fragment of TreA (Escherichia coli O9:H4 (strain HS), UniProt A7ZZD1 96-565).
T4 construct: Split E. coli trehalase fragment; also called HIS-tagged TreA^C
T4 sequence: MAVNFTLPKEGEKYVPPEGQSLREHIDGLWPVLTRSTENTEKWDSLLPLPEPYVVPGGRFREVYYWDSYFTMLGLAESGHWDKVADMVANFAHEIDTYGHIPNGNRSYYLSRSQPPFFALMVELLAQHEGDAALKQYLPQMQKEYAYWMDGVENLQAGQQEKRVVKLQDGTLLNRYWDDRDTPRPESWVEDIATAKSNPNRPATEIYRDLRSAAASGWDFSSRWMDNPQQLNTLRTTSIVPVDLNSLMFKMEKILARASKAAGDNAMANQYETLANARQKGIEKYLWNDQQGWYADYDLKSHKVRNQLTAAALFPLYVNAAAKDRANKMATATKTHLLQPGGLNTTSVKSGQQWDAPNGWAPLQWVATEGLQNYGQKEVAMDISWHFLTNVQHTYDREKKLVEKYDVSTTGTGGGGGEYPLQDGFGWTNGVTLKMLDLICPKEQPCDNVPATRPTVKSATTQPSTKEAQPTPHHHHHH
Described as above.

B1: HIS-TreAN-EI: N-terminally HIS-tagged N-terminal fragment of TreA with C-terminal fusion with leucine zipper (other)
chain: MAHHHHHHEETPVTPQPPDILLGPLFNDVQNAKLFPDQKTFADAVPNSDPLMILADYRMQQNQSGFDLRHFVNVNFTLPKEGEKYVPGSVPGSEIAALEKEIAALEKENAALEWEIAALEK
For the molecule B1, the binding result in assay [1] is “no binding”. The “glucose signal over 3 h, lyophilized fusions resuspended in acidified bovine blood or milk (glucose strips)” value in assay [2] turned out to be 2 fold.

B2: CaMKIIp-TreA^C-HIS: CaMKII peptide N-terminally fused to the C-terminally HIS-tagged C-terminal fragment of TreA (other)
chain: MARRKLKGAILTTMLATRNFVDNFTLPKEGEKYVPPEGQSLREHIDGLWPVLTRSTENTEKWDSLLPLPEPYVVPGGRFREVYYWDSYFTMLGLAESGHWDKVADMVANFAHEIDTYGHIPNGNRSYYLSRSQPPFFALMVELLAQHEGDAALKQYLPQMQKEYAYWMDGVENLQAGQQEKRVVKLQDGTLLNRYWDDRDTPRPESWVEDIATAKSNPNRPATEIYRDLRSAAASGWDFSSRWMDNPQQLNTLRTTSIVPVDLNSLMFKMEKILARASKAAGDNAMANQYETLANARQKGIEKYLWNDQQGWYADYDLKSHKVRNQLTAAALFPLYVNAAAKDRANKMATATKTHLLQPGGLNTTSVKSGQQWDAPNGWAPLQWVATEGLQNYGQKEVAMDISWHFLTNVQHTYDREKKLVEKYDVSTTGTGGGGGEYPLQDGFGWTNGVTLKMLDLICPKEQPCDNVPATRPTVKSATTQPSTKEAQPTPHHHHHH
notes: also called MaMKII peptide fused to C-terminal fragment of TreA
In the case of B2, the binding result in assay [3] is given as “binds”.

B3: HIS-TreAN-KI: N-terminally HIS-tagged N-terminal fragment of TreA with C-terminal fusion with leucine zipper (other)
chain: MAHHHHHHEETPVTPQPPDILLGPLFNDVQNAKLFPDQKTFADAVPNSDPLMILADYRMQQNQSGFDLRHFVNVNFTLPKEGEKYVPGSVPGSKIAALKEKIAALKEKNAALKWKIAALKE
On to B3, for which the binding result in assay [4] is “no binding”.

B4: TreAN-HIS: C-terminally HIS-tagged N-terminal fragment of TreA (w/o signal peptide) (other)
chain: MEETPVTPQPPDILLGPLFNDVQNAKLFPDQKTFADAVPNSDPLMILADYRMQQNQSGFDLRHFVNVNFTLPKEGEKYVPHHHHHH
notes: Split E. coli trehalase fragment; also called HIS-tagged TreA^N
As to B4, the binding result in assay [5] and in assay [6] was “no binding” throughout.

Values taken from patent publication US20210116443A1 (CREATIVE PROTEIN SOLUTIONS, published 2021).
